According to PMC4831018:

Tests used:
[1] = molecular target: TgVps29-cMyc (Toxoplasma gondii); experiment: affinity purification with mass spectrometry; absolute quantification of TgVps35, TgVps26 and TgVps29 in the immunoprecipitates by microLC-SRM with stable isotope-labelled standard peptides, three proteotypic peptides per protein
[2] = molecular target: TgVps26-HA (Toxoplasma gondii); experiment: as above

TgVps35-HA (natural protein)
stoichiometry N (TgVps35 per TgVps29) [1]: 3
stoichiometry N (TgVps35 per TgVps26) [2]: 1
